This note sets out measurements from patent US20210371455A1, “METHODS AND COMPOSITIONS COMPRISING REDUCED LEVEL OF HOST CELL PROTEINS” (Regeneron Pharmaceuticals, Inc., priority 2019, published 2021).

What all share (format): biochemical
A short description of data set [1]: PS80 degradation by human PLBD2 and CHO PLBD2. The following applies: PLBD2 200 μg/mL, 0.1% PS80, 45° C., 5 days; peaks eluting between 30 and 35 minutes. As to the method: (§1) Hydrolysis of Polysorbate 20 and PS80 with Putative Phospholipase B-like 2 (PLBD2) and Formulated Antibody. To evaluate the effect of PLBD2 on PS20 and PS80 degradation, 16 μL of 10 mM Histidine buffer pH 6.0 was mixed with 2 μL of 1% PS20 or 1% PS80, followed by adding 2 μL of […] PLBD2 and incubating the sample at 45° C. for 5 days. One aliquot (3 μL) of each sample was diluted twenty-five time by adding 72 μL 10 mM histidine, pH 6.0 and used for LC-CAD analysis.
(§2) Polysorbates degradation by recombinant human PLBD2 and in-house CHO PLBD2 was monitored as outlined in the Material and Methods section. Recombinant human PLBD2 and in-house CHO PLBD2 with concentration at 200 μg/mL were incubated with 0.1% of PS20 and PS80 for 5 days. […] By incubating PS20 with OriGene human PLBD2, a decrease in signal intensity occurred on POE-ester peaks eluting at between 27.5 and 38 minutes. The peaks eluted before 34 minutes were POE monoester containing short fatty acid chain, for example, POE sorbitan monolaurate, POE isosorbide monolaurate, POE sorbitan monomyristate and POE isosorbide monomyristate. […] Instead, because both PLBD2 proteins contain a high level of impurities, it is more likely that the difference in esterase activity originated from some unknown HCP impurities other than from PLBD2 itself.

Data set [2] is described as follows: PS20 degradation by human PLBD2 and CHO PLBD2. The following applies: PLBD2 200 μg/mL, 0.1% PS20, 45° C., 5 days. As to the method:
as §1, §2

A short description of another data set: PS80 degradation by LAL. The following applies: LAL 10 ppm and 20 ppm, 5 days at 45° C. From the text:
LAL has an ability to hydrolyze primary and higher order esters.

Data set [3] is described as follows: PS20 incubated with LAL and SIAE (CAD profile). The following applies: 0.2% PS20 with 10 ppm LAL and 10 ppm SIAE together, after 5 days. The protocol: To examine the effect of both SIAE and LAL on PS20, 10 ppm of LAL and 10 ppm of SIAE were incubated with a solution comprising 0.2% PS20. Polysorbate in formulated mAbs were detected and identified as shown in Example 1.

A short description of data set [4]: PS20 degradation by recombinant SIAE (2D-LC-CAD). The protocol: Two-Dimensional Liquid Chromatography-Charged Aerosol detector (CAD)/Mass Spectrometry (MS) Assay to Detect Polysorbate Degradation. Degradation of PS20 and PS80 in CHO cell-free media or formulated antibody were analyzed by two-dimensional HPLC-CAD/MS system. The details of the setup were previously described by Genentech (Yi Li et al., Characterization and Stability Study of Polysorbate 20 in Therapeutic Monoclonal Antibody Formulation by Multidimensional Ultrahigh-Performance Liquid Chromatography-Charged Aerosol Detection-Mass Spectrometry, 86 ANALYTICAL CHEMISTRY 5150-5157 (2014)). […]
The 2D-LC system was set up with Thermo UltiMate 3000 and coupled with Corona Ultra CAD detector. Operating at nitrogen pressure of 75 psi for quantitation. […]
(§3) Peak area of each ester was obtained from the CAD detector and added up to account for intact PS20 or PS80. The remaining percentage of PS20 or PS80 used in this work was calculated by comparing sum of the peak area of monoester eluting between 27.5 min and 33 min at each time point to sum of peak areas at time zero. Relative percent of different order ester or total esters can be calculated similarly.
Hydrolysis of Polysorbate 20 with Sialate O-acetylesterase (SIAE) and Formulated Antibody. […] The influence of pH on the rate of PS20 degradation was determined by evaluating activity at 5.3, 6.0 and 8.0 in acetate, histidine and citrate buffer system.

Data set [5] is described as follows: PS80 degradation by spiked-in recombinant SIAE (2D-LC-CAD). The following applies: 0.1% PS80, SIAE 50 ppm, 5 days at 45° C. The protocol:
Two-Dimensional Liquid Chromatography-Charged Aerosol detector (CAD)/Mass Spectrometry (MS) Assay to Detect Polysorbate Degradation. Degradation of PS20 and PS80 in CHO cell-free media or formulated antibody were analyzed by two-dimensional HPLC-CAD/MS system. The details of the setup were previously described by Genentech (Yi Li et al., Characterization and Stability Study of Polysorbate 20 in Therapeutic Monoclonal Antibody Formulation by Multidimensional Ultrahigh-Performance Liquid Chromatography-Charged Aerosol Detection-Mass Spectrometry, 86 ANALYTICAL CHEMISTRY 5150-5157 (2014)). Polysorbates were separated from formulated mAb by using Oasis MAX column (20 mm×2.1 mm, 30 μm, Waters, Milford, Mass., U.S.A.). Initial condition was set at 1% solvent B (0.1% formic acid in acetonitrile) and held for 1 min. It was increased to 20% in 1.5 minutes and dropped back down to 1% in 1.5 minutes. […]
as §3

B1: human PLBD2: recombinant human putative phospholipase B-like 2 purchased from Origene (protein)
chain: IPAPGGRWARDGQVPPASRSRSVLLDVSAGQLLMVDGRHPDAVAWANLTNAIRETGWAFLELGTSGQYNDSLQAYAAGVVEAAVSEELIYMHWMNTVVNYCGPFEYEVGYCERLKSFLEANLEWMQEEMESNPDSPYWHQVRLTLLQLKGLEDSYEGRVSFPAGKFTIKPLGFLLLQLSGDLEDLELALNKTKIKPSLGSGSCSALIKLLPGQSDLLVAHNTWNNYQHMLRVIKKYWLQFREGPWGDYPLVPGNKLVFSSYPGTIFSCDDFYILGSGLVTLETTIGNKNPALWKYVRPRGCVLEWVRNIVANRLASDGATWADIFKRFNSGTYNNQWMIVDYKAFIPGGPSPGSRVLTILEQIPGMVVVADKTSELYQKTYWASYNIPSFETVFNASGLQALVAQYGDWFSYDGSPRAQIFRRNQSLVQDMDSMVRLMRYNDFLHDPLSLCKACNPQPNGENAISARSDLNPANGSYPFQALRQRSHGGIDVKVTSMSLARILSLLAASGPTWDQVPPFQWSTSPFSGLLHMGQPDLWKFAPVKVSWD
With B1, the PS80 degradation result in data set [1] is “significant degradation”. Moreover, the PS20 degradation result in data set [2] is given as “Significant PS20 degradation”.

B2: LAL: lysosomal acid lipase encoded by the LIPA gene; recombinant, overexpressed in CHO cell (protein, UniProt P38571 77-399, looked up)
Lysosomal acid …: GPKPVVFLQHGLLADSSNWVTNLANSSLGFILADAGFDVWMGNSRGNTWSRKHKTLSVSQDEFWAFSYDEMAKYDLPASINFILNKTGQEQVYYVGHSQGTTIGFIAFSQIPELAKRIKMFFALGPVASVAFCTSPMAKLGRLPDHLIKDLFGDKEFLPQSAFLKWLGTHVCTHVILKELCGNLCFLLCGFNERNLNMSRVDVYTTHSPAGTSVQNMLHWSQAVKFQKFQAFDWGSSAKNYFHYNQSYPPTYNVKDMLVPTAVWSGGHDWLADVYDVNILLTQITNLVFHESIPEWEHLDFIWGLDAPWRLYNKIINLMRKYQ
As for B2, the PS80 degradation entry in the data set “PS80 degradation by LAL” is reported as “significant degradation of monoesters only”. For the same molecule, the “PS20 ester species degradation” value in data set [3] was “all ester species degraded”.

B3: SIAE: recombinant sialate O-acetylesterase, host cell protein overexpressed and purified in CHO (protein)
chain: MVSLGSVFGLLLLLIIVRASRSAGIDFRFGSYIDNYMVLQKEPSGAVIWGFGTPGATVTVTLCQGQNTFKKKVTTVKAHSNTWVVVLDPMKPGGPYEVMAKQTFGITNVTLRIHDILFGDVWLCSGQSNMKMTVLQIFNASKELAVAAAYQSVRIFSASLVQAEEELEDLDKVDLSWSRPTAGNLGNGNYTYMSAVCWLFGRYLYDNLQYPIGLVSSSWGGTPIEAWSSKRALKSCGVPNTSNERILQTTRSECKSEGSLCPLGSFTLPPSVTGPATHSVLWNAMIHPLQKMTLKGVIWYQGESNEDLNRDLYSCMFPALIDDWRQTFHDGSQKQTERFFPFGFVQLSSYAETNTSDYRFPEIRWHQTADFGFVPNLKMPNTFMAVAMDLCDLNSPFGSIHPRDKQTVAYRLHLGARALAYGEKNLAFQGPLPKKIELLAHSRLLSLTYDQKIQVHRQDNKSFEISCCSDRLCKWLPVSVNSFSTKTLILGISACRGTVVDVRYAWTTWPCDYKQCAVYHPSNTLPAPPFTAPITYQAPRFRASDSSTQE
Regarding B3, the PS20 degradation result in data set [4] (0.1% PS20, SIAE 2.5 ppm, 45° C., 10 mM Histidine pH 6, 10-day incubation) is reported as “Significant PS20 degradation”. The “pH effect on PS20 degradation by SIAE” value in data set [4] (SIAE directly incubated with PS20 in buffers pH 8.0, 6.0, 5.3) is “maximum degradation at pH 6.0”. Also, the PS80 degradation entry in data set [5] is given as “did not show any degradation”. Moreover, in data set [3], the “PS20 ester species degradation” value is listed as “all ester species degraded”.
